The term pKd denotes the negative decadic logarithm of the Kd, by convention in mol/L. Low readings indicate a large Kd, high ones a small Kd.

The results in this text go back to paper PMC4451460.

For assay [1], the target named is HTT(1-17) peptide, the 17 N-terminal residues of huntingtin (human) (UniProt P42858). Briefly: ITC; isothermal calorimetry of C4 scFv with HTT(1-17) and truncated peptides; conditions not shown (Fig. S3). Background: ITC needs no label: the signal is the heat of the interaction.
Assay [2] has as its target truncated peptide HTT(1-14) (human) (UniProt P42858). The assay is described as above.

pKd: −log10 of the molar value.

For the substance C4 single-chain Fv antibody (C4 scFv), in assay [1], the pKd was 7.30. Moreover, in assay [2], the fold decrease in binding affinity compared to HTT(1-17) came to 10 fold.
